This is an account of results in patent publication US20220282217A1 (BIONTECH US, published 2022).

Experiment [1] deals with T1, HLA-A01:01 class I MHC molecule (human).
T1 construct: heavy chain biotinylated and made in E. coli in the stability assay
Description: competition with a radiolabeled reference peptide for purified MHC I, gel filtration; 'Affinity (nM)'. As for the experimental part:
(§1) Peptides were incubated at varying concentrations with these complexes for 2 days, and the amount of remaining radiolabeled peptide bound to […] was measured using size exclusion gel-filtration.
(In general: Size exclusion chromatography separates by hydrodynamic size, large species first.)

For experiment [2], the target named is HLA-A03:01 class I MHC molecule (human). The description is as above. As to the method:
as §1

In experiment [3] the target is T1, HLA-A01:01 class I MHC molecule. Briefly: pMHC-I dissociation at 37 C, 125I-labeled b2m, scintillation counts. As for the experimental part: (§2) Briefly, synthetic genes encoding biotinylated MHC-I heavy and light chains are expressed in E. coli and purified from inclusion bodies using standard methods. […] These reactions are carried out in streptavidin coated microplates to bind the biotinylated MHC-I heavy chains to the surface and allow measurement of radiolabeled light chain to monitor complex formation. Dissociation is initiated by addition of higher concentrations of unlabeled light-chain and incubation at 37° C. Stability is defined as the length of time in hours it takes for half of the complexes to dissociate, as measured by scintillation counts.

Experiment [4] deals with HLA-A03:01 class I MHC molecule (human). The experiment is described as above. As to the method:
as §2

The target of experiment [5] is HLA-A11:01 class I MHC molecule (human). Briefly: competition with a radiolabeled reference peptide for purified MHC I, gel filtration; 'Affinity (nM)'; affinity assay, column 'Affinity (nM)'. As to the method: as §1
Experiment [6] deals with HLA-A24:02 class I MHC molecule (human). Briefly: competition with a radiolabeled reference peptide for purified MHC I, gel filtration; 'Affinity (nM)'. As for the experimental part: as §1
For experiment [7] the target is unchanged. Briefly: pMHC-I dissociation at 37 C, 125I-labeled b2m, scintillation counts. As for the experimental part: as §2
Experiment [8] addresses HLA-B08:01 class I MHC molecule (human). Description: competition with a radiolabeled reference peptide for purified MHC I, gel filtration; 'Affinity (nM)'. As to the method: as §1
For experiment [9] the target is unchanged. Description: pMHC-I dissociation at 37 C, 125I-labeled b2m, scintillation counts. As to the method: as §2
Experiment [10] deals with T2, HLA-A02.01 class I MHC molecule (prepared complex) (human). Briefly: dissociation of peptide-MHC-I complex at 37 C, 125I-labelled b2m, scintillation. As to the method: as §2
Experiment [11] has as its target T2, HLA-A02.01 class I MHC molecule …. Briefly: displacement of radiolabeled reference peptide from class I MHC, gel filtration; 'Affinity (nM)'. As for the experimental part:
as §1

In general, IC50 refers to the point on the concentration scale where inhibition reaches its midpoint. A low value points to inhibition by little substance. As to YMANGSLLNY [BTK, C481S peptide YMANGSLLNY], the concentration for half-maximal inhibition (IC50) came out at 0.0132 µM in experiment [1], 0.0959 µM in [2] and 0.974 µM in [5]. Besides, the “Stability (half-life (hr.))” value amounted to 52 min in experiment [3] and 16.7 min in [4].

In experiment [6], EYMANGSLL [BTK, C481S peptide EYMANGSLL] returned an IC50 of 0.00496 µM. In addition, the “Stability (half-life (hr.))” value in experiment [7] was found to be 343 min.

SLLNYLREM [BTK_C481S peptide SLLNYLREM]: the IC50 in experiment [8] amounted to 0.96 µM. In addition, the “Stability (half-life (hr.))” value in experiment [9] came out at 0 h.

B1: EGFR_T790M peptide LIMQLMPFGC (peptide)
peptide: LIMQLMPFGC
notes: synthetic peptide holding the EGFR T790M mutation
For B1, in experiment [10], the “Stability (half-life (hr.))” value worked out at 22.9 min. This molecule also showed a 50% inhibitory concentration (IC50) in [11] of 0.132 µM.
